Experimental data as given in patent US7361741.

Target: enzyme recognising antibody fragments

B1: Human Gastric Lipase (protein)
chain: LFGKLHPGSPEVTMNISQMITYWGYPNEEYEVVTEDGYILEVNRIPYGKKNSGNTGQRPVVFLQHGLLASATNWISNLPNNSLAFILADAGYDVWLGNSRGNTWARRNLYYSPDSVEFWAFSFDEMAKYDLPATIDFIVKKTGQKQLHYVGHSQGTTIGFIAFSTNPSLAKRIKTFYALAPVATVKYTKSLINKLRFVPQSLFKFIFGDKIFYPHNFFDQFLATEVCSREMLNLLCSNALFIICGFDSKNFNTSRLDVYLSHNPAGTSVQNMFHWTQAVKSGKFQAYDWGSPVQNRMHYDQSQPPYYNVTAMNVPIAVWNGGKDLLADPQDVGLLLPKLPNLIYHKEIPFYNHLDFIWAMDAPQEVYNDIVSMISEDKK
- enzyme activity assay (DGGR substrate): Approximately 30 to 60% of the enzyme recognising antibody fragments showed to inhibit the enzyme
